Measurements as given in patent US20190040375A1.

Key:
[1] = biological target: gliadin-subtilisin A digest (mixed gliadins, 250 ug/ml, incubated with subtilisin A, 57 ug/ml); assay: G12 sandwich ELISA; gliadins 250 ug/ml with subtilisin A 57 ug/ml, 2 h
[2] = biological target: gliadin-subtilisin A digest (mixed gliadins, 250 ug/ml, incubated with subtilisin A, 57 ug/ml); assay: G12 sandwich ELISA; gliadins 250 ug/ml with subtilisin A 57 ug/ml, t=0 sample
[3] = biological target: gliadin-Rmep digest (mixed gliadins, 250 ug/ml, incubated with Rmep, 57 ug/ml); assay: G12 sandwich ELISA; gliadins 250 ug/ml with Rmep 57 ug/ml, 2 h
[4] = biological target: gliadin-Rmep digest (mixed gliadins, 250 ug/ml, incubated with Rmep, 57 ug/ml); assay: G12 sandwich ELISA; gliadins 250 ug/ml with Rmep 57 ug/ml, 30 min
[5] = biological target: gliadin-Rmep digest (mixed gliadins, 250 ug/ml, incubated with Rmep, 57 ug/ml); assay: R5 sandwich ELISA; gliadins 250 ug/ml with Rmep 57 ug/ml, t=0 sample
[6] = biological target: gliadin-subtilisin A digest (mixed gliadins, 250 ug/ml, incubated with subtilisin A, 57 ug/ml); assay: R5 sandwich ELISA; gliadins 250 ug/ml with subtilisin A 57 ug/ml, 15 min
[7] = biological target: gliadin-subtilisin A digest (mixed gliadins, 250 ug/ml, incubated with subtilisin A, 57 ug/ml); assay: R5 sandwich ELISA; gliadins 250 ug/ml with subtilisin A 57 ug/ml, t=0 sample

Q: How did the degradation of G12 epitopes (ELISA) [1] turn out when “G12 monoclonal antibody (AgraQuant ELISA Gluten G12, Romer labs)” was run?
A: Its degradation of G12 epitopes (ELISA) is 45%.

Q: What about the degradation of G12 epitopes (ELISA) [2] of the same substance?
A: The degradation of G12 epitopes (ELISA) was 22%.

Q: What about the decrease in antibody binding [3] of the same substance?
A: The decrease in antibody binding was 85%.

Q: And the decrease in antibody binding [4]?
A: Its decrease in antibody binding is 65%.

Q: How did the reduction in antibody binding compared to the control [5] turn out when “R5 monoclonal antibody (… Gliadin, R-Biopharm)” was run?
A: The reduction in antibody binding compared to the control was 46%.

Q: And the elimination of R5 epitopes (ELISA) [6]?
A: Its elimination of R5 epitopes (ELISA) is 100%.

Q: And the elimination of R5 epitopes (ELISA) [7]?
A: The elimination of R5 epitopes (ELISA) was 90%.
